Experimental data taken from US10047131B2, “Peptides and combination of peptides for use in immunotherapy against ovarian cancer and other cancers” (immatics biotechnologies GmbH, priority 2015, dated 2018).

Molecular target: HLA-A*02:01 (Homo sapiens, UniProt P04439, D140Y/D185E/D98H/E176V/E277Q/G131W/G231S/I119V/I121R/I166T/I218V/L300P/L318F/N151K/N90K/P208A/P217A/Q86G/Q94H/R138H/R169H/T345S)
Test: MHC binding assay (UV-ligand exchange, ELISA of exchange yield)
Details: binding to HLA-A*02:01, UV-ligand exchange
How it was run: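 Peptide–MHC complexes made by UV-ligand exchange, where a UV-cleavable peptide is replaced by the test peptide. Exchange yield measured by ELISA: complexes diluted 100-fold on streptavidin-coated plates, stabilized complexes detected with HRP anti-β2m, TMB read at 450 nm.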

Substance	Peptide exchange (MHC class I binding score, peptide exchange yield)
594 (IMLKGDNITL; listed as Homo sapiens) [compound 594]	“+++” (≥50 = +++)
595 (VLLSIYPRV; listed as Homo sapiens) [compound 595]	“+++” (≥50 = +++)
596 (ALLDQTKTLAESAL; listed as Homo sapiens) [compound 596]	“+++” (≥50 = +++)
597 (KLLEGQVIQL; listed as Homo sapiens) [compound 597]	“+++” (≥50 = +++)
598 (FLFPHSVLV; listed as Homo sapiens) [compound 598]	“+++” (≥50 = +++)
599 (YLLNDASLISV; listed as Homo sapiens) [compound 599]	“+++” (≥50 = +++)
600 (ALAAPDIVPAL; listed as Homo sapiens) [compound 600]	“+++” (≥50 = +++)
601 (SAFPFPVTV; listed as Homo sapiens) [compound 601]	“+++” (≥50 = +++)
602 (YLLEQIKLIEV; listed as Homo sapiens) [compound 602]	“++++” (≥75% = ++++)
603 (FLIEPEHVNTV; listed as Homo sapiens) [compound 603]	“++” (≥20% = ++)
604 (SILDRDDIFV; listed as Homo sapiens) [compound 604]	“+++” (≥50 = +++)
605 (KLYEAVPQL; listed as Homo sapiens) [compound 605]	“+++” (≥50 = +++)
606 (ALWETEVYI; listed as Homo sapiens) [compound 606]	“+++” (≥50 = +++)

Further lines, results first:

Peptide exchange (MHC class I binding score, peptide exchange yield)	Substance
“+++” (≥50 = +++)	607 (RLYSGISGLEL; listed as Homo sapiens) [compound 607]
“+++” (≥50 = +++)	608 (SLLSVSHAL; listed as Homo sapiens) [compound 608]
“+++” (≥50 = +++)	609 (ALWKQLLEL; listed as Homo sapiens) [compound 609]
“+++” (≥50 = +++)	610 (LLAPTPYIIGV; listed as Homo sapiens) [compound 610]
“++++” (≥75% = ++++)	611 (YLLDDGTLVV; listed as Homo sapiens) [compound 611]
“+++” (≥50 = +++)	612 (YLYNEGLSV; listed as Homo sapiens) [compound 612]
“+++” (≥50 = +++)	613 (RLLPPGAVVAV; listed as Homo sapiens) [compound 613]
“+++” (≥50 = +++)	614 (LLLPDQPPYHL; listed as Homo sapiens) [compound 614]
“++” (≥20% = ++)	615 (VLPPDTDPA; listed as Homo sapiens) [compound 615]
“+++” (≥50 = +++)	616 (VLIDEVESL; listed as Homo sapiens) [compound 616]
“+++” (≥50 = +++)	617 (ALMYESEKVGV; listed as Homo sapiens) [compound 617]
“+++” (≥50 = +++)	618 (VLFDSESIGIYV; listed as Homo sapiens) [compound 618]
“+++” (≥50 = +++)	619 (ALQDRVPLA; listed as Homo sapiens) [compound 619]
“++++” (≥75% = ++++)	620 (KLLNKIYEA; listed as Homo sapiens) [compound 620]
“++++” (≥75% = ++++)	621 (VLMDRLPSLL; listed as Homo sapiens) [compound 621]
“+++” (≥50 = +++)	622 (RLLGEEVVRVLQA; listed as Homo sapiens) [compound 622]
“+++” (≥50 = +++)	623 (YLVEDIQHI; listed as Homo sapiens) [compound 623]
“+++” (≥50 = +++)	635 (SLDSTLHAV; listed as Homo sapiens) [compound 635]
